Molecular target: HA of A/CA/04/09 (H1N1) virus (Influenza A virus A/CA/04/09 (H1N1))
Assay: cell-based or functional assay

For CT-P27, the EC50, microneutralization test was 0.62 µg/mL.
